Laboratory results from patent US20180185504A1 (Regeneron, published 2018).
Substitutions are numbered along the chain they refer to. In names and notes the source's numbering stands.

T1: hPRLR.mmh (soluble monomeric human PRLR) (human)
T1 construct: called soluble monomeric PRLR protein
T1 chain: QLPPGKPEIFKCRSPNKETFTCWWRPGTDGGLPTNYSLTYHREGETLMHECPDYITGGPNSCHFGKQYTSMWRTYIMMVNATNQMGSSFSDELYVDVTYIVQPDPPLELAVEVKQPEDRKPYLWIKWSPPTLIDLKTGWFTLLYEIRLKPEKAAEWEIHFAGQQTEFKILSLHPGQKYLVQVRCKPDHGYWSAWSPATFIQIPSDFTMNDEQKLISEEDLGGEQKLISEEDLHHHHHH

T2: hPRLR.mFc (soluble dimeric human PRLR) (human)
T2 construct: dimeric PRLR construct
T2 chain: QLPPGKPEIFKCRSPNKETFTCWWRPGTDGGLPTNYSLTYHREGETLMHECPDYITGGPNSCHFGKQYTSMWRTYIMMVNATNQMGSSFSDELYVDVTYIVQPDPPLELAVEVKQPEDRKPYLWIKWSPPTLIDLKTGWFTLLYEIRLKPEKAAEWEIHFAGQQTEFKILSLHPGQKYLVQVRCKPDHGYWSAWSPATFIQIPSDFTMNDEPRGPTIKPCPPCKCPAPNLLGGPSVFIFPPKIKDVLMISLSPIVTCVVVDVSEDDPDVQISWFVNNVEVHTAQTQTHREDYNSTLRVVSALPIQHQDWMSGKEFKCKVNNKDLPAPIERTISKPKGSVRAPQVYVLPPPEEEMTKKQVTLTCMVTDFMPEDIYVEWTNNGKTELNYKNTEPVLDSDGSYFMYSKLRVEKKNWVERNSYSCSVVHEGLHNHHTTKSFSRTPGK

T3: macaca fascicularis (mf) PRLR.mmh (soluble monomeric monkey PRLR) (Macaca fascicularis)
T3 construct: called soluble monomeric PRLR protein
T3 chain: T1 chain with I76V, A110T, I125M, I158T, T207I

B1: H1H6793P (antibody, human IgG1, V domains shown)
VH: EVQLVESGGGLVQPGGSLRLSCAASGFSFSIYAMSWFRQAPGKGLEWVSAINGRGDGTHYADSVKGRFTISRDNSKTTLYLQMSSLRAEDTAVYYCAKPVMSTNGFDIWGQGTMVTVSS
VL: DIQMTQSPSTLSASVGDRVTITCRASQSISSWLAWYQLKPGKAPKLLIYKASNLESGVPSRFSGSGSGTEFTLTISSLQPDDFATYYCQQYNIYWTFGQGTKVEIK
notes: Human IgG1 Fc (H1H)
B2: H1H6795P (antibody, human IgG1, V domains shown)
VH: QVQLVQSGAEVKKPGASVKVSCKASGYTFGTSGITWVRQAPGQGLEWMGWSSAYNGKTDYAQKFQDRVTMTTDTSTTTGYMEMRSLTSDDTAVYYCTTVVRRPFDFWGQGTLVTVSS
VL: DIQMTQSPSSLSASVGDRVTITCRASQDINNFLAWFQQKPGKAPKSLIYAASSLQSGVPSKFSGGGSGTDFALTISSLQPEDFATYYCQQYSSYPITFGQGTRLEIK
notes: Human IgG1 Fc (H1H)
B3: H1H6800P (antibody, human IgG1, V domains shown)
VH: EVQLVESGGGLVQPGRSLRLSCAASGFTFDGYAMHWVRQGPGKGLEWVSGISWYSDTLGYADSVKGRFTISRDNAKNSLYLQMNSLRTEDTAFYYCAKISSSGWAFDYWGQGTLVTVSS
VL: EIVLTQSPGTLSLSPGERATLSCRASHSVSSAYLAWYQQKPGQTPRLLIYGTSSRATGIPDRFSGSGSGTDFTLTISRLEPEDFAVYYCQQYGSSPLFTFGPGTKVDIK
notes: Human IgG1 Fc (H1H)
B4: H1H6797P (antibody, human IgG1, V domains shown)
VH: EVQLVESGGGLVQPGGSLRLSCIVSGFTFSGSWMSWVRQLPGKGLEWVANIKEDGSDSYYVDSVEGRFTISRDNAKSSLYLQMNSLRVDDTAVYFCARARTVPLHYWGQGTLVTVSS
VL: DIQMTQSPSTLSASVGDRVTITCRASQSINIWLAWYQQKPGKAPKLLIYRASYLESGVPSSFAGGGSGTEFTLTISSLQPDDFGTYYCQHYNSYPFTFGQGTKLEIK
notes: Human IgG1 Fc (H1H)
B5: H1H6792P (antibody, human IgG1, V domains shown)
VH: EVQLVESGGGLVQPGRSLRLSCAASGFTLDDHAVHWVRQAPGKGLEWVSGISWNSVYIDYADSVKGRFTIFRDNAKNSLYLQMNSLRAEDTAFYYCARDIEGARDYWGQGTLVTVSS
VL: DIQMTQSPSSLSASVGDRVTITCRASQGIRNDLGWYQQKPGKAPKRLIYAASSLQSGVPSRFSGSGYGTEFTLTISSLQPEDFAPYYCLQHNSYPLTFGGGTKVEIK
notes: Human IgG1 Fc (H1H)

Target: T1, hPRLR.mmh (soluble monomeric human PRLR)
Assay: SPR Biacore, 25 C, mAb capture
Description: (§1) Measurements were conducted on a T200 Biacore instrument. Kinetic association (kₐ) and dissociation (kd) rate constants were determined by processing and fitting the data to a 1:1 binding model using Scrubber 2.0 curve fitting software.

Row | Kd [nM] | T½ [min] | koff [s⁻¹] | kon [M⁻¹ s⁻¹] | Binder
1 | 1.41 | 35 | 0.000332 | 235000 | B1
2 | 1.52 | 7 | 0.00177 | 1.17e+06 | B2
3 | 0.972 | 28 | 0.000409 | 421000 | B3
4 | 1.73 | 6 | 0.00196 | 1.13e+06 | B4
5 | 2.45 | 15 | 0.000794 | 324000 | B5

Target: T2, hPRLR.mFc (soluble dimeric human PRLR)
Assay: SPR Biacore, 25 C, mAb capture
Description: as §1

Row | Kd [nM] | T½ [min] | koff [s⁻¹] | kon [M⁻¹ s⁻¹] | Binder
6 | 0.331 | 153 | 7.57e-05 | 229000 | B1
7 | 0.0545 | 137 | 8.41e-05 | 1.54e+06 | B2
8 | 0.184 | 133 | 8.69e-05 | 473000 | B3
9 | 0.122 | 97 | 0.000119 | 982000 | B4
10 | 0.313 | 122 | 9.48e-05 | 303000 | B5

Target: T3, macaca fascicularis (mf) PRLR.mmh …
Assay: SPR Biacore, 25 C, mAb capture
Description: as §1

Row | Kd [nM] | T½ [min] | koff [s⁻¹] | kon [M⁻¹ s⁻¹] | Binder
11 | 2.22 | 29 | 0.000393 | 177000 | B1
12 | 2.33 | 6 | 0.00197 | 844000 | B2
13 | 1.25 | 30 | 0.00038 | 303000 | B3
14 | 3.12 | 6 | 0.00209 | 670000 | B4
15 | 4.17 | 12 | 0.000983 | 236000 | B5
